In data set [1] the target is T1, ArcC1 (carbamate kinase, CK) (Lactococcus lactis, UniProt Q9CE16).
T1 construct: expressed in L. lactis NZ9000; dimer (73 kDa)
T1 sequence (Q9CE16 1-314): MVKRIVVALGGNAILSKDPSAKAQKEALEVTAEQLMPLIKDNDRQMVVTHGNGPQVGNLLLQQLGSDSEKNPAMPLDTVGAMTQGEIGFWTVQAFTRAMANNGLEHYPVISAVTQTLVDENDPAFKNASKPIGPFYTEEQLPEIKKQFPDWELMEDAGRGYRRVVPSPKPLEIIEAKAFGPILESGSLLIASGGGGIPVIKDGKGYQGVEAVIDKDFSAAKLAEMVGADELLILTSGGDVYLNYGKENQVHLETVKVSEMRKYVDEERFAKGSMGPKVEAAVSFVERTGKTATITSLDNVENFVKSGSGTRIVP
The data set can be described thus: ATP formation by ATPlite luminescence. The data set is classed as biochemical. The conditions noted are these: 5 mM carbamoyl-Pi, 5 mM Mg-ADP; 50 mM KPi pH 7.0; 30 °C. In general terms: In ATP-based viability assays light output follows the ATP content of the culture.

Data set [2] has as its target T2, ArcA (arginine deiminase, ADI) (Lactococcus lactis, UniProt P58013).
T2 construct: expressed in L. lactis NZ9000; tetramer (194 kDa)
T2 sequence (P58013 1-410): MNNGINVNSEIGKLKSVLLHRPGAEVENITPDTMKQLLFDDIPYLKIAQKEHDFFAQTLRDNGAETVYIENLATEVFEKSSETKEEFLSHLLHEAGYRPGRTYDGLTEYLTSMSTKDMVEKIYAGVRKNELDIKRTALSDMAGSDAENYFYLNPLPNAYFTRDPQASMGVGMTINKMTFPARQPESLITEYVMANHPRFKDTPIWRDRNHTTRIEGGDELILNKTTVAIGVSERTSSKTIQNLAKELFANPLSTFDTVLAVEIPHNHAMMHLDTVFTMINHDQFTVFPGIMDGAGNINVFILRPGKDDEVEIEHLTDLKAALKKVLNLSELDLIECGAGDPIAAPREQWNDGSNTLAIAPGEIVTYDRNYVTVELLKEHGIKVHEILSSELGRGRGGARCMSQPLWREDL
Nature of the data set: citrulline formation, COLDER assay (A540). The data set is classed as biochemical. The conditions noted are these: read-out: % inhibition at 10 mM.

The target in data set [3] is T3, ArcB (ornithine transcarbamoylase, OTC) (Lactococcus lactis, UniProt P0C2U0).
T3 construct: expressed in L. lactis NZ9000; hexamer (245 kDa)
T3 sequence (P0C2U0 1-354): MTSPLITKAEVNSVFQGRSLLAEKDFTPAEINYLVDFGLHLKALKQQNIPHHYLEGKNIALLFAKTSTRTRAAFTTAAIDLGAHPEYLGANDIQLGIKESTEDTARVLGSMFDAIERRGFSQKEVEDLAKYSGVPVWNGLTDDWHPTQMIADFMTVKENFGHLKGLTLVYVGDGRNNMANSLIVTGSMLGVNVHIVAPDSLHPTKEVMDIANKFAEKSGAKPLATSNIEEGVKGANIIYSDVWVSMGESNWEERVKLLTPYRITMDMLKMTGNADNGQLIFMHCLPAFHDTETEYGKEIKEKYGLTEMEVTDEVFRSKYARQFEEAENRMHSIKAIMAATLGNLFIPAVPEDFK
The data set can be described thus: citrulline formation, COLDER assay (A540). The format is biochemical. Conditions: citrulline-forming direction; 5 mM carbamoyl-Pi; 50 mM KPi pH 7.0; 30 °C.

The target of data set [4] is T2, ArcA (arginine deiminase, ADI). The data set can be described thus: citrulline formation, COLDER assay (A540); Michaelis-Menten with uncompetitive substrate inhibition. The format is biochemical. Conditions: 3.2 nM ArcA, 50 mM KPi pH 7.0, 30 °C, n = 1.
In data set [5] the target is T3, ArcB (ornithine transcarbamoylase, OTC). The data set can be described thus: citrulline formation, COLDER assay (A540). The format is biochemical. Conditions: read-out: % inhibition at 10 mM.
Data set [6] deals with T1, ArcC1 (carbamate kinase, CK). The data set can be described thus: ATP formation by ATPlite luminescence. The data set is classed as biochemical. The conditions noted are these: read-out: % inhibition at 10 mM.
Substrate in data set [7]: N=C(N)NCCC[C@H](N)C(=O)O
Nature of the data set: citrulline formation, COLDER assay (A540). The data set is classed as biochemical, Lactococcus lactis. Conditions: 50 mM KPi pH 7.0, 30 °C, 42 nM ArcA, arginine up to 480 µM.

Substrate in data set [8]: NC(=O)OP(=O)(O)O
The data set can be described thus: ATP/ADP ratio by PercevalHR fluorescence, pH-corrected with pyranine. The data set is classed as biochemical, Lactococcus lactis. The conditions noted are these: 5 mM Mg-ADP, 50 mM KPi pH 7.0, 30 °C.

Substrate in data set [9]: Nc1ncnc2c1ncn2[C@@H]1O[C@H](COP(=O)(O)OP(=O)(O)O)[C@@H](O)[C@H]1O
Described as above. The format is biochemical, Lactococcus lactis. Conditions: 5 mM carbamoyl-Pi, 50 mM KPi pH 7.0, 30 °C.

Substrate in data set [10]: NC(=O)NCCC[C@H](N)C(=O)O
The data set can be described thus: purified protein. The format is biochemical, Lactococcus lactis. The conditions noted are these: internal citrulline as counter-substrate, 25 µM external arginine, membrane potential −120 mV (valinomycin), pH 7.0, 30 °C.

Substrate in data set [11]: N=C(N)NCCC[C@H](N)C(=O)O
The data set can be described thus: purified protein. The format is biochemical, Lactococcus lactis. Conditions: external arginine, 10 mM internal ornithine, DOPE:DOPG:DOPC 50:38:12, 50 mM KPi pH 7.0, 30 °C, labelled compound.

Substrate in data set [12]: NCCC[C@H](N)C(=O)O
Nature of the data set: purified protein. Conditions: internal ornithine as counter-substrate, 25 µM external arginine, 50 mM KPi pH 7.0, 30 °C.

Substrate in data set [13]: NC(=O)OP(=O)(O)O
Nature of the data set: citrulline formation, COLDER assay (A540). The format is biochemical, Lactococcus lactis. Conditions: citrulline-forming direction, 5 mM ornithine, 50 mM KPi pH 7.0, 30 °C.

For the molecule `NCCC[C@H](N)C(=O)O` [L-ornithine], the “% inhibition” value in data set [1] was “ornithine was slightly inhibitory”. Moreover, in data set [2], the inhibition at 10000 µM came out at 30%. For the same molecule, the Km in data set [3] worked out at 700 ± 200 µM.

As for `N=C(N)NCCC[C@H](N)C(=O)O` [L-arginine], the “K I” value in data set [4] was 3.2 ± 0.4 mM. For the same molecule, the inhibition at 10000 µM in data set [5] was 25%.

`NC(=O)NCCC[C@H](N)C(=O)O` [L-citrulline]: the inhibition at 10000 µM in data set [6] lay in the range of 40 to 50%.

B1: ArcA (arginine deiminase, ADI) (Lactococcus lactis subsp. lactis Il1403) (protein)
chain: T2 sequence (P58013 1-410)
notes: expressed in L. lactis NZ9000; tetramer (194 kDa)
For B1, in [7], the Km was found to be 34.5 ± 6.6 µM and the kcat was 3.3 ± 0.2 s⁻¹.

B2: ArcC1 (carbamate kinase, CK) (Lactococcus lactis subsp. lactis Il1403) (protein)
chain: T1 sequence (Q9CE16 1-314)
notes: expressed in L. lactis NZ9000; dimer (73 kDa)
Consider B2, for which the Km in data set [8] came to 0.6 ± 0.2 mM; in data set [9], 1.6 ± 0.7 mM. For the same molecule, the kcat in data set [8] came to 200 ± 20 s⁻¹; in [9], 190 ± 15 s⁻¹.

B3: ArcD2 (arginine/ornithine antiporter, AOA) (Lactococcus lactis subsp. lactis Il1403) (protein)
chain: MENKKTKGISLFALLAIIISGAIGGGVFNLANDLANGSTPGGVMISWLFIGFGIFMLVLSFNRLITIRPKLSGVSDYAREGFGDFIGFLSGWGYWISAWTGTIGFAVLMMTSADYFFPSKFANSNGSLTVLSVIIVSIISWILMFLVDRGVETAALVNAVVMIAKLIPLVVFSITGIILFKADVFTQHFWQTFTSNLAADGSVKSLVWHAMTAGGLLDQIKGSLMVMVWVFVGIEGAAMMGNRAKKKSDTAKATIIGLAVLLVIYVLLSLLPYGYMDQASLANVKAPGLVYILNEMVGGWGGSLMAIGLMISLLGAWLSWTMLPVEATQQLAEKKLLPSWFGKLNKYHAPSNSLLITQLMIQIFIIITYFVANAYNVFIYMATAVIMICYALVGAYLLKIGIKEGSIKNILIGFFTFAFQALALYLSGWQYVWLAMILYTIGFILFIKAKKESRQAISVKEWAGMFIVALLGVLAILVLICGAKSGTALDLRGLLGY
notes: expressed in L. lactis JP9000; reconstituted in proteoliposomes; monomer (53 kDa) in DDM
For the molecule B3, the Km in “purified protein [10]” is recorded as 6.0 ± 2.1 mM; in “purified protein [11]”, 6.0 ± 0.7 µM; in the data set “purified protein [12]”, 2.5 ± 0.7 mM. Further, the figures for the kcat in “purified protein [11]” and in “purified protein [12]” were 0.11 ± 0.005 s⁻¹ and 0.09 ± 0.009 s⁻¹, respectively.

B4: ArcB (ornithine transcarbamoylase, OTC) (Lactococcus lactis subsp. lactis Il1403) (protein)
chain: T3 sequence (P0C2U0 1-354)
notes: expressed in L. lactis NZ9000; hexamer (245 kDa)
On to B4, for which, in data set [13], the Km amounted to 2.7 ± 0.4 mM and the kcat was determined as 565 ± 45 s⁻¹.

As a reminder, the inhibition is how much of the control response was suppressed. By Km is commonly meant the concentration of substrate that gives half-maximal velocity. The term kcat denotes the maximal rate divided by the concentration of active sites.

Source of the values: article PMC7818446, “Enzymology of the pathway for ATP production by arginine breakdown” (The Febs Journal, 2020).
